Patent US6225121

System: T1, Minos transposase (Minos-2) (Drosophila hydei)
T1 sequence: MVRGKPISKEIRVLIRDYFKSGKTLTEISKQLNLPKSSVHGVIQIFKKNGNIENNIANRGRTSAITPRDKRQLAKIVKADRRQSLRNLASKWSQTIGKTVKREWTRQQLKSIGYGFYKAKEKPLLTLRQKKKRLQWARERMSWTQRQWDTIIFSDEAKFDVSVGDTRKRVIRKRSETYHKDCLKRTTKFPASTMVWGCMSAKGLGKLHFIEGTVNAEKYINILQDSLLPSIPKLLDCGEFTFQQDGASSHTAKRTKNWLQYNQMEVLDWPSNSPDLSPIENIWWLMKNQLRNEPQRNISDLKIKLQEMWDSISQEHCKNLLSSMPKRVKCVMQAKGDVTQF
Assay: cell_activity
Settings: HeLa stable transfectants vs transposon alone, experiment 1 (18-fold and 14.5-fold in experiments 2 and 3); source Minos copy of helper not stated; binding not …

Minos transposon with both terminal inverted repeats, neo cargo (pMiLRneo)
activity: 19 fold
